T1: Rvs167 SH3 (RV167_YEAST), P39743
T1 chain: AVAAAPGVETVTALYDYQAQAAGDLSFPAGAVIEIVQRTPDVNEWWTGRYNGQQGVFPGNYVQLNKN

T2: Boi1 SH3 (BOI1_YEAST), P38041
T2 chain: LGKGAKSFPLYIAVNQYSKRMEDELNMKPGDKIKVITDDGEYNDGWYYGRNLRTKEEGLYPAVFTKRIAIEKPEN

T3: Yfr024 SH3 (LSB3_YEAST), P43603
T3 chain: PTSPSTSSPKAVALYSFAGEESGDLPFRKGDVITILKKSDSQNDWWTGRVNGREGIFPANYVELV

T4: Yhr016c SH3 (YSC84_YEAST), P32793
T4 chain: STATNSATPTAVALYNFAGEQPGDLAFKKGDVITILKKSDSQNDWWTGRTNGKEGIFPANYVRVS

T5: Boi2 SH3 (BOI2_YEAST), P39969
T5 chain: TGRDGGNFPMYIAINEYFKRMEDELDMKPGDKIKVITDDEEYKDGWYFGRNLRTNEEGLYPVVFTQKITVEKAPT


Target: T1, Rvs167 SH3 (RV167_YEAST), P39743
Assay: SPOT array

Row | Binder | normalised SPOT signal, Boehringer light units (BLU); mean over the file's lines of this peptide
1 | MLIPNFPNKKLKLN [YHR086W 128-141] | 70.8
2 | MTDPDAPSRTEHKW [YLR179C 77-90] | 23
3 | MTAPLWPNKNEKNH [YOR337W 1-14] | 55.3
4 | MPTPMTPVKVGALA [YNL040W 1-14] | 11
5 | MRAPPSPRKSKSGH [YOR255W 1-14] | 261
6 | MSEPEVPFKVVAQF [YJL020C 1-14] | 19.9

Second part, the binder after the results:

Row | normalised SPOT signal, Boehringer light units (BLU); mean over the file's lines of this peptide | Binder
7 | 1270 | MQGPKIPWRSGRVD [YKR066C 186-199]
8 | 32.5 | MTDPDAPSKTDHKW [YLR178C 93-106]
9 | 111 | MSLPVTPVKSKVSS [YER032W 50-63]

Target: T2, Boi1 SH3 (BOI1_YEAST), P38041
Assay: SPOT array

Row | Binder | normalised SPOT signal, Boehringer light units (BLU); mean over the file's lines of this peptide
10 | MLIPNFPNKKLKLN [YHR086W 128-141] | 34.7
11 | MTDPDAPSRTEHKW [YLR179C 77-90] | 124
12 | MTAPLWPNKNEKNH [YOR337W 1-14] | 32.9
13 | MPTPMTPVKVGALA [YNL040W 1-14] | 13.5
14 | MRAPPSPRKSKSGH [YOR255W 1-14] | 81.1
15 | MSEPEVPFKVVAQF [YJL020C 1-14] | 74.2

Continued, values first:

Row | normalised SPOT signal, Boehringer light units (BLU); mean over the file's lines of this peptide | Binder
16 | 2850 | MQGPKIPWRSGRVD [YKR066C 186-199]
17 | -0 | MTDPDAPSKTDHKW [YLR178C 93-106]
18 | 0.6 | MSLPVTPVKSKVSS [YER032W 50-63]

Target: T3, Yfr024 SH3 (LSB3_YEAST), P43603
Assay: SPOT array

Row | Binder | normalised SPOT signal, Boehringer light units (BLU); mean over the file's lines of this peptide
19 | MLIPNFPNKKLKLN [YHR086W 128-141] | 1090
20 | MTDPDAPSRTEHKW [YLR179C 77-90] | 122
21 | MTAPLWPNKNEKNH [YOR337W 1-14] | 109
22 | MPTPMTPVKVGALA [YNL040W 1-14] | 288
23 | MRAPPSPRKSKSGH [YOR255W 1-14] | 1240
24 | MSEPEVPFKVVAQF [YJL020C 1-14] | 48.9

Next, values leading:

Row | normalised SPOT signal, Boehringer light units (BLU); mean over the file's lines of this peptide | Binder
25 | 15900 | MQGPKIPWRSGRVD [YKR066C 186-199]
26 | 56.6 | MTDPDAPSKTDHKW [YLR178C 93-106]
27 | 2120 | MSLPVTPVKSKVSS [YER032W 50-63]

Target: T4, Yhr016c SH3 (YSC84_YEAST), P32793
Assay: SPOT array

Row | Binder | normalised SPOT signal, Boehringer light units (BLU); mean over the file's lines of this peptide
28 | MLIPNFPNKKLKLN [YHR086W 128-141] | 423
29 | MTDPDAPSRTEHKW [YLR179C 77-90] | 239
30 | MTAPLWPNKNEKNH [YOR337W 1-14] | 257
31 | MPTPMTPVKVGALA [YNL040W 1-14] | 66.7
32 | MRAPPSPRKSKSGH [YOR255W 1-14] | 1100
33 | MSEPEVPFKVVAQF [YJL020C 1-14] | 105

Next, values leading:

Row | normalised SPOT signal, Boehringer light units (BLU); mean over the file's lines of this peptide | Binder
34 | 13800 | MQGPKIPWRSGRVD [YKR066C 186-199]
35 | 109 | MTDPDAPSKTDHKW [YLR178C 93-106]
36 | 257 | MSLPVTPVKSKVSS [YER032W 50-63]

Target: T5, Boi2 SH3 (BOI2_YEAST), P39969
Assay: SPOT array

Row | Binder | normalised SPOT signal, Boehringer light units (BLU); mean over the file's lines of this peptide
37 | MLIPNFPNKKLKLN [YHR086W 128-141] | 59.7
38 | MTDPDAPSRTEHKW [YLR179C 77-90] | 34.4
39 | MTAPLWPNKNEKNH [YOR337W 1-14] | 25.8
40 | MPTPMTPVKVGALA [YNL040W 1-14] | 55
41 | MRAPPSPRKSKSGH [YOR255W 1-14] | 168
42 | MSEPEVPFKVVAQF [YJL020C 1-14] | 64.8

More lines, now with the values ahead:

Row | normalised SPOT signal, Boehringer light units (BLU); mean over the file's lines of this peptide | Binder
43 | 651 | MQGPKIPWRSGRVD [YKR066C 186-199]
44 | 34.4 | MTDPDAPSKTDHKW [YLR178C 93-106]
45 | 37.9 | MSLPVTPVKSKVSS [YER032W 50-63]
